Data as given in article PMC4689385.

Target: KillerOrange
Assay: crystal structure; KillerOrange; hanging drop vapor diffusion at 20°C; ~22 mg/ml protein in 20 mM Tris pH 8.0, 200 mM NaCl; reservoir 0.02M Na acetate pH 5.0, 1% gamma-PGA, 3% PEG 4K; data at 100 K

KillerOrange
stoichiometry N: 2
